One assay concerns the target T1, Flag-tagged cyclin F (Homo sapiens (Human), UniProt P41002 1-786).
T1 construct: Expressed in HEK293 cells and immunoprecipitated with anti-Flag; In the ubiquitylation assay it stood with co-immunoprecipitated Skp1, Cul1 and Rbx1; also called cyclin F-flag; Flag-cyclin F; not shown: C-terminal Flag tag
T1 sequence: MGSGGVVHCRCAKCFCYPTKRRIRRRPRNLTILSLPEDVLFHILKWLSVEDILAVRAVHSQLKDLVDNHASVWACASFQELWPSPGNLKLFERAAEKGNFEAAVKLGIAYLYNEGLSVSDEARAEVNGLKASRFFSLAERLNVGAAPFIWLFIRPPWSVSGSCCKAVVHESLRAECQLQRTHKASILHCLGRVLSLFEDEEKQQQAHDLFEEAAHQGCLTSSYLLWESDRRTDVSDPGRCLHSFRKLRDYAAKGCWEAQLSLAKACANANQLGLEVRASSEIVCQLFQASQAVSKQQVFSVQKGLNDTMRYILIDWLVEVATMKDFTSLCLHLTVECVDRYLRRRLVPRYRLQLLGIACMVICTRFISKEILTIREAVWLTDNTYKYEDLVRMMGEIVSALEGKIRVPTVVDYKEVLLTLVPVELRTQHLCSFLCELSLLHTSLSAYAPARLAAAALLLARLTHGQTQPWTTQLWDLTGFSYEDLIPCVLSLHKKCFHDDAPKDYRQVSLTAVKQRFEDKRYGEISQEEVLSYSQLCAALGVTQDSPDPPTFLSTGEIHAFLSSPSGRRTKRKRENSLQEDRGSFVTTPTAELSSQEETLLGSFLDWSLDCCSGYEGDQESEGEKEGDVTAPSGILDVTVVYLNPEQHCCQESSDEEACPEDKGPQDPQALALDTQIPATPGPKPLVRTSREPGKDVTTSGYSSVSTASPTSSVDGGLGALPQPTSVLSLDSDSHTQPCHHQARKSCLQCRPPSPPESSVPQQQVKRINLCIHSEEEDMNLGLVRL
Put plainly: co-immunoprecipitation with anti-myc from HEK293 lysate, immunoblot. As to the method:
A. HEK293 cells were transfected with cyclin F-flag and TDP-43-HA. After 24 hours, cells were lysed and anti-flag antibodies or an IgG control were used to immunoprecipitate Flag-cyclin F. Eluates were analyzed by immunoblotting using antibodies recognizing cyclin F and TDP-43. B. HEK293 cells were transfected with cyclin F-flag and TDP-43-HA. At 24 hours post-transfection, cells were lysed and Flag-cyclin F was immunoprecipitated using antibodies recognizing the Flag tag. Eluates were analyzed by immunoblotting using antibodies recognizing cyclin F and phospho-TDP-43 (S409/410). C. Schematic showing the position of the RxL>AxA mutation within TDP-43. D. Cells were transfected with cyclin F and TDP-43(WT) or TDP-43(RxL>AxA). Cyclin F was immunoprecipitated from cell lysates using antibodies recognizing the Flag tag. Eluates were analyzed using anti-cyclin F and anti-TDP-43. E. Schematic showing the TDP-43 fragments used for immunoprecipitations. […] Eluates were analyzed by immunoblotting using antibodies recognizing cyclin F and myc.
In order to determine whether cyclin F interacts with TDP-43 through the typical RxL motif present in all known cyclin F substrates, constructs expressing wild-type TDP-43 or variant TDP-43 (RxL>AxA) were transfected into HEK293 cells (FIG. 1C). After 24 hours, the cells were lysed and Flag-cyclin F was immunoprecipitated and analyzed for TDP-43 by immunoblotting. […]
Background: Immunoblotting shows a protein as a band on a membrane.

Assay [1] has as its target T2, recombinant His-tagged TDP-43 (full length) (UniProt Q13148 1-414).
T2 construct: In MST it was labelled with RED-tris-NTA dye on the His tag; also called His-TDP-43; recombinant TDP-43; not shown: His tag, printed as His-TDP-43
Put plainly: microscale thermophoresis, labelled His-TDP-43, GST-cyclin domain titrated. As to the method: Recombinant His-tagged TDP-43 (a gift from Professor Julie Atkin's laboratory) was diluted to 200 nM in PBS-T buffer (137 mM NaCl, 2.5 mM KCl, 10 mM Na2HPO4, 2 mM KH2PO4, pH 7.4; 0.05% (v/v) Tween-20). The RED-tris-NTA dye was diluted in PBS-T to 100 nM. For labelling, the recombinant protein and diluted dye were mixed in a 1:1 volume ratio and incubated for 30 minutes at room temperature. Recombinant cyclin F-GST was also diluted in PBS-T buffer prior to analysis. Concentrations of cyclin F-GST (cyclin box) ranged from 0-22 μM. Before MST measurements were carried out, samples were centrifuged for 10 minutes at 4° C. at 14,000×g. All MST measurements were performed on a NanoTemper Monolith™NT.115 instrument using standard treated capillaries at room temperature. Final dye concentration of 25 nM yielded the fluorescence intensity of around 300 counts at a LED power of 50%. Accordingly, the MST power range was between 40-60% intensity with a laser-on time of 30 s and a laser-off time of 5 s. All data were analysed by MO Affinity Analysis Software.

B1: Myc-tagged C-terminal fragment of TDP-43 (167-414) (other, UniProt Q13148 167-414, looked up)
chain: MIDGRWCDCKLPNSKQSQDEPLRSRKVFVGRCTEDMTEDELREFFSQYGDVMDVFIPKPFRAFAFVTFADDQIAQSLCGEDLIIKGISVHISNAEPKHNSNRQLERSGRFGGNPGGFGNQGGFGNSRGGGAGLGNNQGSNMGGGMNFGAFSINPAMMAAAQAALQSSWGMMGMLASQQNQSGPSGNNQNQGNMQREPNQAFGSGNNSYSGSNSGAAIGWGSASNAGSGSGFNGGFGSSMDSKSSGWGM
notes: Over-expressed in HEK293 cells with Flag-cyclin F; also called myc-TDP-43; not shown: myc tag, printed as myc-TDP-43
Regarding B1, the binding result with Flag-tagged cyclin F is “no binding”.

B2: GST-cyclin domain of cyclin F (aa 302-497) (other)
chain: QKGLNDTMRYILIDWLVEVATMKDFTSLCLHLTVECVDRYLRRRLVPRYRLQLLGIACMVICTRFISKEILTIREAVWLTDNTYKYEDLVRMMGEIVSALEGKIRVPTVVDYKEVLLTLVPVELRTQHLCSFLCELSLLHTSLSAYAPARLAAAALLLARLTHGQTQPWTTQLWDLTGFSYEDLIPCVLSLHKKCF
notes: Made in E. coli from pGEX5; also called cyclin box of cyclin F; cyclin F-GST (cyclin box); not shown: glutathione S-transferase (GST) tag of the pGEX5 vector
In the case of B2, the binding result in assay [1] was “binds”.

Source of the values: patent publication US20220362404A1 (MACQUARIE UNIVERSITY, published 2022).
